Measurements from US10829560B2, “Agents binding specifically to human cadherin-17, human cadherin-5, human cadherin-6 and human cadherin-20 RGD motif” (CONSEJO SUPERIOR DE INVESTIGACIONES CIENTÍFICAS, priority 2015, dated 2020).

How the values were obtained:
RKO and KM12SM cells [1] = assay: Cell adhesion to plates coated with CDH17 domain 6; type: cell-based, human; details: for inhibition of cell adhesion to CDH17 domain 6 wt: FIG. 4B; for optimal dose for promoting cell adhesion to coated plates: FIG. 4A
Protocol: (§1) For soluble binding assays, cells were detached, incubated for 40 min with CDH17 ectodomain (10 μg/mL) at 37° C. in Ca2+, Mg2+ and Mn2+-free HBSS medium (Life Technologies), washed, incubated with anti-CDH17 antibodies at 4° C., washed again, incubated with secondary antibodies and analyzed by flow cytometry. For cell adhesions to CDH17 Domain 6 (2-10 μg/mL), adhesion assays in 96 wells microtiter plates were performed as above but in medium containing 1 mM MnCl2 and cells were washed gently, using a multi-channel pipette. For blocking assays, cells were preincubated with anti-β1 integrin (5 μg/mL) for 10 min before adhesion.

β1 integrin = target: T1, β1 integrin (Homo sapiens, UniProt P05556+P17301); assay: β1 integrin activation by CDH17 proteins or cadherin RGD peptides (HUTS21 flow cytometry); type: cell-based; details: for conformational change of β1-integrin into a high affinity conformation: 9 aa peptides, MDA-MB-468, BLM and RKO cells, FIG. 16; for β1 integrin in high-affinity conformation: RKO and KM12SM cells, FIG. 5B, 5C; for induction of β1 integrin activation: RKO cells, 1 μg/mL peptide, FIG. 17
T1 construct: endogenous in cells; host or cells: RKO (A4); RKO, KM12SM, MDA-MB-468 and BLM (A9)
Protocol: Cells were detached with 2 mM EDTA in PBS, incubated at 4° C. with primary antibodies (10 μg/ml) for 30 min, washed and incubated with Alexa 488 labelled-secondary antibodies (anti-mouse IgG or anti-rabbit IgG, Dako). Fluorescence was analysed in a Coulter Epics XL cytofluorometer. Mean fluorescence intensities for the indicated antibodies are shown inside each panel. As a reference, irrelevant control antibodies (anti-cadherin-11, Santa Cruz Biotechnologies) gave a mean fluorescence intensity of 0.3.
RKO cells were detached with 2 mm EDTA in PBS, washed with PBS, resuspended in DMEM and incubated with a 9-amino acid peptide containing the RGD motif and the flanking sequences from cadherin 5 (SEQ ID NO: 37 for the RGD motif of domain 2 (CDH5A), and SEQ ID NO: 19 for the RGD motif of domain 3 (CDH5B)), cadherin 6 (SEQ ID NO: 38), cadherin 17 (VSLRGDTRG) (SEQ ID NO: 1), cadherin 20 (SEQ ID NO: 39), and cadherin 16 (SEQ ID NO: 31, RAIRGDTEG) for 25 min at 37° C. in presence of immune sera or control serum (diluted 1:50). After incubation, cells were subjected to flow cytometry assays using anti-β1 integrin in high-affinity conformation antibodies (Huts21, BD Pharmingen) and Alexa 488-coupled anti-mouse IgG antibodies (Abcam). Fluorescence was analysed in a Coulter Epics XL cytofluorometer. Mean fluorescence intensities for the indicated antibodies are shown inside each panel. As a reference, irrelevant control antibodies gave a mean fluorescence intensity of 0.3.
Alternatively, RKO cells were starved for 4 h, detached with EDTA 2 mM in PBS, and incubated in serum-free DMEM with 1 μg/mL of the following peptides: 9 aa peptides including the RGD motifs and the flanking sequences corresponding to the cadherin 17 (SEQ ID NO: 1) and the two motifs present in cadherin-5 (SEQ ID NO: 37 for the RGD motif of domain 2 (CDH5A), and SEQ ID: 19 for the RGD motif of domain 3 (CDH5B)), and 7 aa or 5 aa peptides with 2 aa or 1 aa respectively in each side of the RGD motif corresponding to the sequence of CDH17, SLRGDTR (SEQ ID NO: 32), and LRGDT (SEQ ID NO: 14), respectively. Simultaneously the cells were incubated to the indicated anti-CDH17 RGD monoclonal antibodies (10 μg/mL). After 40 min, cells were washed and subjected to flow cytometry assays using HUTS21 antibody, which binds to β1-integrin in high affinity conformation. Data were collected in a FACScalibur™ cytometer (BD) and represented as % of the β1-integrin activation induced by the 9 aa CDH17 RGD peptide (SEQ ID NO: 1).

RKO and KM12SM cells [2] = assay: Soluble binding assay using CDH17 ectodomain as ligand (flow cytometry); type: cell-based, human; details: 10 μg/mL, FIG. 3E
Protocol: as §1

RKO and KM12SM cells [3] = assay: Cell adhesion to Matrigel after incubation with CDH17 DOM6 or Ecd; type: cell-based, human; details: FIG. 5D
Protocol: For cell adhesion, 96-well plates were coated with Matrigel (4 μL/mL) (BD Biosciences) or type IV collagen ([…]) (Sigma-Aldrich) in coating buffer (0.1 M NaHCO3 pH 8.8) for 20 h and incubated with adhesion medium (0.4% BSA in serum-free DMEM) for 2 h to block unspecific binding. Cell were starved for 5 h without serum, labeled with BCECF-AM (Invitrogen), detached with 2 mM EDTA in PBS, resuspended in serum-free DMEM and 7×10^4 cells in 100 μL were added to plates in triplicate and then incubated for 25 min. Non-adherent cells were removed by three washes with DMEM. Bound cells were quantified using a fluorescence analyzer (POLARstar Galaxy).

T1 sequence (P05556 21-798): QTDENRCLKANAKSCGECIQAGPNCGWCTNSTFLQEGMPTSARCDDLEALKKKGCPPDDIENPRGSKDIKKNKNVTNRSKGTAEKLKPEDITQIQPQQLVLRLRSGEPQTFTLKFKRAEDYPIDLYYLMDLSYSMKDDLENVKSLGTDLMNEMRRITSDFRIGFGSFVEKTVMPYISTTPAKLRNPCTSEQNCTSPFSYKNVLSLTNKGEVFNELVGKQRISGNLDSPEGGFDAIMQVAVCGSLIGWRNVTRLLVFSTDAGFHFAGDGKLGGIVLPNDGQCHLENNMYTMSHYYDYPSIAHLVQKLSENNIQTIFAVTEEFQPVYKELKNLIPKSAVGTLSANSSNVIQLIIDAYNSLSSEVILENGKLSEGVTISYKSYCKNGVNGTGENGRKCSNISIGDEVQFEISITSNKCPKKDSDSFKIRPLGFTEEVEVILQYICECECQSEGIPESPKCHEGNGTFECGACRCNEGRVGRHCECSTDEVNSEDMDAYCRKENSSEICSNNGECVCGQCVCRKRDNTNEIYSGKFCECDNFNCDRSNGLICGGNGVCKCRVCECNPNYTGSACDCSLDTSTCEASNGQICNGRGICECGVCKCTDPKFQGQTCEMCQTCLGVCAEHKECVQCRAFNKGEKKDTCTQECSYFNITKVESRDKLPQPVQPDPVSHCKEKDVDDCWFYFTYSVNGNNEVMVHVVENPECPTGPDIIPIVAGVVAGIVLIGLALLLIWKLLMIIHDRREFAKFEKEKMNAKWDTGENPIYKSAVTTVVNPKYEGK
T1 sequence (P17301 30-1181): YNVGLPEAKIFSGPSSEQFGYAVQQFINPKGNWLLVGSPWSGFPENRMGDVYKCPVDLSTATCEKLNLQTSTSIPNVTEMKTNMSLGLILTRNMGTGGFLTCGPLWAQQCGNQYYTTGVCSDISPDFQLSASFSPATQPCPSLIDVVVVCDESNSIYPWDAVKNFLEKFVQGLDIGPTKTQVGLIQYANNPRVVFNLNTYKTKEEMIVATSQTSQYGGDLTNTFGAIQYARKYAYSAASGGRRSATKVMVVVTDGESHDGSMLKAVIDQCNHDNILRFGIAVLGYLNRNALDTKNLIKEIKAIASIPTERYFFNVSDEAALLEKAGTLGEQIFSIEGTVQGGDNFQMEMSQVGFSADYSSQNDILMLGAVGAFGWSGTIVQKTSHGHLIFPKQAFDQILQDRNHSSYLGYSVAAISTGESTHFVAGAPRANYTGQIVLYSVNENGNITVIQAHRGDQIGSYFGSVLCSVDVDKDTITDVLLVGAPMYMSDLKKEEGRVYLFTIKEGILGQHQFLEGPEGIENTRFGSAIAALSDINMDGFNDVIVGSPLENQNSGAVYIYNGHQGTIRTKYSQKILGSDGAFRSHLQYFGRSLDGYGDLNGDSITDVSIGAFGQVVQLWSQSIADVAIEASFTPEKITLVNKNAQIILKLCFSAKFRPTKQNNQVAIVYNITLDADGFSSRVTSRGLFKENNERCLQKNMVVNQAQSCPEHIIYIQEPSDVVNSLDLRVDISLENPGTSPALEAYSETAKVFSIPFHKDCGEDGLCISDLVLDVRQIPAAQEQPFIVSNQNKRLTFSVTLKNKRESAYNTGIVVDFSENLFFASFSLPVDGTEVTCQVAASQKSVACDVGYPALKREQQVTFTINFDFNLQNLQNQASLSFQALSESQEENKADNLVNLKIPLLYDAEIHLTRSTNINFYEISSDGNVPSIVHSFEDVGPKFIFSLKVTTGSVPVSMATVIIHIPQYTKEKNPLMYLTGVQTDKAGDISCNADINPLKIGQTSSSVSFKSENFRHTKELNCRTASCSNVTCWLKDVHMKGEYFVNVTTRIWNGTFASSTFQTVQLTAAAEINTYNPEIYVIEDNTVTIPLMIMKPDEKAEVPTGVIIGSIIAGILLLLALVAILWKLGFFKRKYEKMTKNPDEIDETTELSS

Question: Which “inhibition of cell adhesion to CDH17 domain 6 wt” value (RKO and KM12SM cells [1]; both cell lines) does the source give for RADS [RADS peptide] here?
Answer: did not inhibit cell adhesion

Question: How did the “conformational change of β1-integrin into a high affinity conformation” value (“conformational change” below) (β1 integrin) turn out when “RAIRGDTEG (listed as Homo sapiens) [SEQ ID NO: 31, reference compound]” was run?
Answer: not

Question: With “RAIRRGDTEG (listed as Homo sapiens) [CDH16 RGD, reference compound]” as the molecule, how does the “β1 integrin in high-affinity conformation” value (β1 integrin) read?
Answer: had no effect on β1 integrin activation

Question: Which “conformational change” value (β1 integrin) does the source give for “DMDRGDGSI (listed as Homo sapiens) [SEQ ID NO: 39]” here?
Answer: induced the conformational change of β1-integrin into a high affinity conformation

Question: Which “concentration at which competition of cell adhesion to CDH17 domain 6 wt started” value (RKO and KM12SM cells [1]; both cell lines, 1 mM MnCl2, FIG. 4B) does the source give for RGDS [RGDS peptide] here?
Answer: 1 µM

Question: What about the “inhibition of cell adhesion to CDH17 domain 6 wt” value (RKO and KM12SM cells [1]; both cell lines) of the same molecule?
Answer: clear dose-dependent effect

Question: For “Ecd RAD: recombinant CDH17 ectodomain mutant lacking RGD motif (RAD)”, which “binding to the cell surface” value (RKO and KM12SM cells [2]) is on record?
Answer: unable to bind to cells

Question: And the “cell adhesion to Matrigel after incubation” value (“cell adhesion to Matrigel” for short) (RKO and KM12SM cells [3])?
Answer: significantly enhanced

Question: How did the “conformational change” value (β1 integrin) turn out when “QGLRGDSGT (listed as Homo sapiens) [CDH5A]” was run?
Answer: induced the conformational change of β1-integrin into a high affinity conformation

Question: What about the “induction of β1 integrin activation” value (β1 integrin) of the same molecule?
Answer: able to activate beta1 integrin

Question: For LRGDT (listed as Homo sapiens), which “induction of β1 integrin activation” value (β1 integrin) is on record?
Answer: able to induce efficiently the integrin activation

Question: With SLRGDTR (listed as Homo sapiens) as the molecule, how does the “induction of β1 integrin activation” value (β1 integrin) read?
Answer: able to induce efficiently the integrin activation

Question: How did the “conformational change” value (β1 integrin) turn out when “VSLRGDTRG (listed as Homo sapiens) [CDH17 peptide]” was run?
Answer: induced the conformational change of β1-integrin into a high affinity conformation

Question: And the “β1 integrin in high-affinity conformation” value (β1 integrin)?
Answer: increased high-affinity conformation β1 integrin in both cell lines

Question: For “CDH17 ectodomain: purified recombinant CDH17 ectodomain (wild type) expressed in baculovirus”, which “binding to the cell surface” value (RKO and KM12SM cells [2]) is on record?
Answer: bound to the cell surface

Question: And the “β1 integrin in high-affinity conformation” value (β1 integrin)?
Answer: enhanced the amount of β1 integrin in high-affinity conformation

Question: What about the “cell adhesion to Matrigel” value (RKO and KM12SM cells [3]) of the same molecule?
Answer: significant increase in cell adhesion to Matrigel

Question: How did the “conformational change” value (β1 integrin) turn out when “DQDRGDGSL (listed as Homo sapiens) [SEQ ID NO: 38]” was run?
Answer: induced the conformational change of β1-integrin into a high affinity conformation

Question: Which “conformational change” value (β1 integrin) does the source give for “SILRGDYQD (listed as Homo sapiens) [CDH5 RGD peptide]” here?
Answer: induced the conformational change of β1-integrin into a high affinity conformation

Question: What about the “induction of β1 integrin activation” value (β1 integrin) of the same molecule?
Answer: able to activate beta1 integrin

B1: domain 6 wt: recombinant CDH17 domain 6 (571-665) expressed in E. coli (protein)
chain: FQAKVSEDVAIGTKVGNVTAKDPEGLDISYSLRGDTRGWLKIDHVTGEIFSVAPLDREAGSPYRVQVVATEVGGSSLSSVSEFHLILMDVNDNPP
Question: B1 was tested. Which “optimal dose for promoting cell adhesion to coated plates” value (RKO and KM12SM cells [1]; KM12SM) did it give?
Answer: 10 µg/mL

Question: And the “optimal dose for promoting cell adhesion to coated plates” value (RKO and KM12SM cells [1]; RKO)?
Answer: 2 µg/mL

Question: And the “β1 integrin in high-affinity conformation” value (β1 integrin)?
Answer: enhanced the amount of β1 integrin in high-affinity conformation

Question: What about the “cell adhesion to Matrigel” value (RKO and KM12SM cells [3]) of the same molecule?
Answer: significant increase in cell adhesion to Matrigel

Question: What about the “cell adhesion to Matrigel” value (RKO and KM12SM cells [3]; listed as CDH17 DOM6 wt) of the same molecule?
Answer: significantly enhanced
